Experimental data taken from the RNAGym collection of RNA variant scans (doi:10.7554/elife.80360).

B1: Hammerhead Ribozyme (parent)
chain: ACCGGAUGUGCUUUCCGGUCUGAUGAGUCCGUGAGGACGAAACAG

Variants of: B1
Assay: self-cleavage, relative activity (ratio to wild type); higher = more cleavage; co-transcriptional

Variant | self-cleavage
U13C C20G | 0.293
U24C G27U | 0.335
U32G G39C | 0.497
U9G G31C | 0.754
U24A A44C | 0.46
U32A A34G | 0.818
G8C G27A | 0.787
G10U G39U | 0.313
G33U A37U | 0.972
G17A A37G | 0.604
U14A C29U | 0.557
U19C U24G | 0.552
U12G A26C | 0.475
C2G C43G | 0.308
U21A G31C | 0.532
U21A G31U | 0.554
C29G A37C | 0.759
U7A G45C | 0.566
U19C A40C | 0.305
U9C G22A | 0.34
U28A G31C | 0.919
G10C G22U | 0.335
U9G C30U | 1.26
C15A G45U | 0.467

Variant | self-cleavage
U28C C43U | 0.405
C38A G39A | 0.325
G18A C20G | 0.367
U28G A42G | 0.264
G5U A23U | 0.356
G5U G22U | 0.304
U9G U14G | 0.991
A26U A41C | 0.295
A1G C30U | 1.84
C30A A34U | 0.66
A26C C38G | 0.33
C16U G17C | 0.551
G4A A26U | 0.472
C20U G35C | 0.407
U12G U21G | 0.334
C11A A42U | 0.282
A1G A23G | 0.413
U19A G35C | 0.422
U9C C15U | 0.863
C11U G22A | 0.382
G18U A40U | 0.345
A37C A44U | 0.368
A1C A23U | 0.362
C2U A26G | 0.34

Variant | self-cleavage
C16U G45C | 0.921
U12G G27C | 0.433
U14G A42G | 0.381
U14G G17C | 0.27
A26C G45U | 0.45
A26G A42U | 0.286
U12A A40C | 0.556
U14G C38U | 0.796
U14G C38A | 0.435
C20G G31U | 0.356
U19C A23C | 0.299
A42U | 0.338
G5U C16U | 0.894
A1U A42G | 0.351
U28A G36C | 0.396
U19C G22A | 0.282
U7C G17A | 0.32
A6U G17C | 0.354
U9G A26G | 0.345
A6G C38U | 0.629
U7G C38A | 0.502
G5A U13C | 1.6
C11A G31A | 1.21
U7C C15G | 0.667

Variant | self-cleavage
U14C G18A | 0.409
A41C A44G | 0.594
U14C U32G | 0.546
G17C U28G | 0.395
C15G G25C | 0.262
G5A A6C | 0.483
U32G A37G | 0.448
G35C G39A | 0.31
U21C C29A | 0.37
U7A A26G | 0.221
U7A C38G | 0.431
C15A A41C | 0.338
G4A U7C | 0.294
G4A U7G | 0.335
A1U A6U | 0.46
C43U A44U | 0.346
G25C | 0.324
A34G A41U | 0.284
U12C G22C | 0.337
C3G C16U | 0.327
U9A A41U | 0.37
A1C G45A | 0.578
G5A G17C | 0.434
G8C G10A | 1.47

Variant | self-cleavage
G8A U12G | 1.25
G25C C30G | 0.221
U13C G18C | 0.842
G5A G18C | 0.386
A6U G39U | 0.364
C38A A41G | 0.338
A6G C30U | 0.634
U14A U21C | 0.586
C30G A37U | 0.358
U13C U28G | 0.935
C16A G18U | 0.525
U12A U28C | 1.1
C29A C30G | 0.372
C20A U32A | 0.471
A23U C38U | 0.341
A1G G27U | 0.585
G8U U13C | 1.34
A1U U7A | 0.588
G31C C38G | 0.488
G35A A37U | 0.414
C29U C43A | 0.337
G10C A42C | 0.34
G22C A41G | 0.31
U13A A34C | 1.5

Variant | self-cleavage
U12C C38A | 0.678
G8C G22C | 0.339
C38U A40U | 0.348
A1C A44U | 0.377
C3U U32C | 0.962
U13A G35U | 0.727
G8U U14C | 1.06
G10U | 1.07
C3G C11U | 0.314
A6C U32A | 0.901
C38U A41U | 0.453
C20U A34G | 0.407
U12C G33U | 1.37
G22A C29A | 0.342
A1C C15U | 0.408
A1G U13G | 1.97
C11A G22C | 0.35
C15A G27A | 0.589
C2G C16G | 0.294
G25U G27A | 0.34
U7C C29A | 0.685
C15G C38U | 0.633
G18U G35A | 0.555
U13A G31A | 1.46

Variant | self-cleavage
G10A A37G | 0.639
G25A G31C | 0.326
G5A A42C | 0.359
G4C U13A | 1.04
U21A G27A | 0.363
U14C G45A | 0.472
U13C C15A | 0.834
A1U U28G | 0.436
U28A A40G | 0.394
G10A G36C | 0.843
C3A G31A | 0.912
U9G G25C | 0.383
C3G G22A | 0.304
G5C U24C | 0.625
U21G G25C | 0.361
G17U C29G | 0.591
C11A C20G | 0.319
G35C A44G | 0.692
U13G U24G | 0.654
G25U A37C | 0.294
U19G G36A | 0.38
G10C U32C | 1.3
A44U G45C | 1.86
